Laboratory results published in publication PMC9838217, “Structure of SALL4 zinc finger domain reveals link between AT-rich DNA binding and Okihiro syndrome”.

Legend:
Conditions in all cases: protein: recombinant; tags: His6-GST removed with 3C protease; label: DY681
SALL4 ZFC4 R900W = biological target: T1, SALL4 ZFC4 R900W (Mus musculus, UniProt Q8BX22 870-940, R900W); experiment: EMSA; apparent; poly(dI-dC); EMSA: 68.1 nM DY681-dsDNA, 20 mM HEPES pH 7.5, 150 mM K acetate, 5 mM Mg acetate, 10 ng/ul poly(dI-dC), 30 min on ice; 4% native PAGE, 0.5x TBE, 4 C
T1 sequence: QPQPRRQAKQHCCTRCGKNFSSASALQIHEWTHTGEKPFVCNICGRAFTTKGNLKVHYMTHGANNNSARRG

SALL4 ZFC4 V925S = biological target: T2, SALL4 ZFC4 V925S (Mus musculus, UniProt Q8BX22 870-940, V925S); experiment: as above
T2 sequence: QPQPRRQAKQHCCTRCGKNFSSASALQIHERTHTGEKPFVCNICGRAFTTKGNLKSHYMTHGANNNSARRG

SALL4 ZFC4 I897S = biological target: T3, SALL4 ZFC4 I897S (Mus musculus, UniProt Q8BX22 870-940, I897S); experiment: as above
T3 sequence: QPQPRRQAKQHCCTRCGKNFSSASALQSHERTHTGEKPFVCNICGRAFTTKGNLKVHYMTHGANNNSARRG

SALL4 ZFC4 I897S+V925S = biological target: T4, SALL4 ZFC4 I897S+V925S (Mus musculus, UniProt Q8BX22 870-940, I897S;V925S); experiment: EMSA; apparent; text gives 5.0; poly(dI-dC); EMSA: 68.1 nM DY681-dsDNA, 20 mM HEPES pH 7.5, 150 mM K acetate, 5 mM Mg acetate, 10 ng/ul poly(dI-dC), 30 min on ice; 4% native PAGE, 0.5x TBE, 4 C
T4 sequence: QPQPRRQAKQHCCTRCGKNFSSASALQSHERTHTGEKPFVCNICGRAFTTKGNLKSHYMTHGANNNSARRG

B1: EMSA AT-rich probe (dsDNA)
DNA 1: AAAAAATATTAAAAA
DNA 2: TTTTTAATATTTTTT
Kd (SALL4 ZFC4 R900W): 23 µM | Kd (SALL4 ZFC4 V925S): 0.91 µM | Kd (SALL4 ZFC4 I897S): 4.8 µM | Kd (SALL4 ZFC4 I897S+V925S): 5.08 µM
